Reference: patent US20190292266A1 (NAVIGO PROTEINS, published 2019)

Biological target: T1, CD3 (Example 7)
T1 construct: Partner of the 145-2C11 Fab and its fusions
Experiment: SPR, biotinylated CD3 on SA chip, Langmuir 1:1
Experimental: For SPR-analysis of PD1/CD3, a CM5 sensor Chip (GE Healthcare) with immobilized target PD1 (about 800 RU) was prepared. CD3 was 10 times biotinylated and immobilized on SA coupled sensor chip (GE Healthcare) of about 200 RU. Specific binding of biotin and streptavidin provides a strong interaction of the target protein on the chip. Injection of free biotin blocks unbound streptavidin avoiding unspecific interaction during measurement. Determination of dissociation constant and data evaluation was equal to Example 6.

T1 sequence (P22646 22-108): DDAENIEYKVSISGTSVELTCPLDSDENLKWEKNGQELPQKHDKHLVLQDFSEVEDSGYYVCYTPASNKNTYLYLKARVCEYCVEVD

Kd: 13.4 nM | koff: 0.00296 s⁻¹ | kon: 221000 M⁻¹ s⁻¹
B1: 145-2C11 Fab Fragment (Fab, V domains shown)
VH: EVQLVESGGGLVQPGKSLKLSCEASGFTFSGYGMHWVRQAPGRGLESVAYITSSSINIKYADAVKGRFTVSRDNAKNLLFLQMNILKSEDTAMYYCARFDWDKNYWGQGTMVTVSS
VL: DIQMTQSPSSLPASLGDRVTINCQASQDISNYLNWYQQKPGKAPKLLIYYTNKLADGVPSRFSGSGSGRDSSFTISSLESEDIGSYYCQQYYNYPWTFGPGTKLEIKR
notes: also called PID 38; CD3 specific Fab fragment
